This is an account of results in patent publication US20220260563A1.

Holding throughout (experiment): cell-based or functional assay
For assay [1], the target named is AAV2 capsid (AAV2-Luciferase vector virions) (AAV2) (UniProt P03135).
Assay [2] addresses human intravenous immunoglobulin gamma (IVIG), 10% Human IVIG (Gamunex) (human).
Assay [3] has as its target AAV2 capsid (AAV2-Luciferase vector virions) (AAV2) (UniProt P03135). This is another data set of the same source.
The target in assay [4] is human intravenous immunoglobulin gamma (IVIG), 10% Human IVIG (Gamunex) (human). The source holds these as a separate data set.
In assay [5] the target is AAV neutralizing antibodies in AAV8-GFP immunized C57BL6 mice (mouse).

UniProt P03135, sequence (P03135 whole entry, the tested form may be a part): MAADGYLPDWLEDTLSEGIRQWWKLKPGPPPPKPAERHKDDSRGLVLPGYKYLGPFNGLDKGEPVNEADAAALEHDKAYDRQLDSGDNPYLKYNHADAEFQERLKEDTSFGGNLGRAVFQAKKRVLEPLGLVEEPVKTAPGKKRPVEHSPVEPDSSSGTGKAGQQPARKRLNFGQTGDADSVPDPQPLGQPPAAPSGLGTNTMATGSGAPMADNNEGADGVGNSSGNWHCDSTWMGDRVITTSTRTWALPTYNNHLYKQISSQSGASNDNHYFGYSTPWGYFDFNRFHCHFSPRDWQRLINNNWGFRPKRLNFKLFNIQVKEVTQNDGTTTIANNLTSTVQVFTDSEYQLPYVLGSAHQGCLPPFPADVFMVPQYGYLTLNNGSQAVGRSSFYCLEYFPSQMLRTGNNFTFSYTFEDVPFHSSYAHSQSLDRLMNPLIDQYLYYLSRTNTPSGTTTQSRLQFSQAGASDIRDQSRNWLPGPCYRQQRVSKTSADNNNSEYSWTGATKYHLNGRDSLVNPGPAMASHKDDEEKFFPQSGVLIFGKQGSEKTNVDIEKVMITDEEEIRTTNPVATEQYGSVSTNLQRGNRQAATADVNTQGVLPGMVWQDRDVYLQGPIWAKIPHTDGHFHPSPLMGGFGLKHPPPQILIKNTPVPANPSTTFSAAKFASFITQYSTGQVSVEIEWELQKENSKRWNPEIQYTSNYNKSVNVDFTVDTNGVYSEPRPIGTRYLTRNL

In the case of “Protein M without cleavage of His tag (from UniProt P47523 37-556)”, in assay [1], the molar ratio of protein M to AAV2 particle at which enhancement begins to saturate (protein M molecules per AAV2 particle) is 700000 and the molar ratio of protein M to AAV2 particle below which enhancement of luciferase signal is abolished (protein M molecules per AAV2 particle) was less than 40000. For the same molecule, in assay [2], the molar ratio of protein M to IVIG that protects AAV2 when protein M is pre-incubated with AAV2 (protein M molecules per IgG molecule) is more than 2 and the protection of AAV2 from IVIG neutralization in 10% FBS, protein M to total IgG molar ratio (protein M molecules per IgG molecule) came to 1.

In assay [1], “human intravenous immunoglobulin gamma (IVIG), 10% Human IVIG (Gamunex) (antibody)” yielded a percent of AAV2-Luciferase signal neutralized by 12.5 µg IVIG of 80%, a percent of AAV2 neutralized by 12.5 µg IVIG of 75%, a percent of AAV2 neutralized by 200 µg IVIG of 100% and a reduction in AAV signal by 12.5 µg IVIG without protein M of 68%.

B1: protein M (SEQ ID NO:2), His-tag removed by thrombin cleavage (protein)
chain: HHHHHHSSGLVPRGSHMTNLVNQSGYALVASGRSGNLGFKLFSTQSPSAEVKLKSLSLNDGSYQSEIDLSGGANFREKFRNFANELSEAITNSPKGLDRPVPKTEISGLIKTGDNFITPSFKAGYYDHVASDGSLLSYYQSTEYFNNRVLMPILQTTNGTLMANNRGYDDVFRQVPSFSGWSNTKATTVSTSNNLTYDKWTYFAAKGASPLYDSYPNHFFEDVKTLAIDAKDISALKTTIDSEKPTYLIIRGLSGNGSQLNELQLPESVKKVSLYGDYTGVNVAKQIFANVVELEFYSTSKANSEGFNPLVLGSKTNVIYDLFASKPFTHIDLTQVTLQNSDNSAIDANKLKQAVGDIYNYRRFERQFQGYFAGGYIDKYLVKNVNTNKDSDDDLVYRSLKELNLHLEEAYREGDNTYYRVNENYYPGASIYENERASRDSEFQNEILKRAEQNGVTFDENIKRITASGKYSVQFQKLENDTDSSLERMTKAVEGLVTVIGEEKFETVDITGVSSDTNEVKSLAKELKTNALGVKLKL
As to B1, in assay [3], the AAV2 luciferase signal relative to PBS control, 33 µg protein M incubated with AAV2 without IVIG (% of PBS control) stood at 216 and the AAV2 luciferase signal relative to PBS control, 75 µg protein M incubated with AAV2 without IVIG (% of PBS control) was 208. In assay [4], the AAV2 luciferase signal, percent of no-IVIG control, at 8:1 molar ratio (33 µg protein M, 12.5 µg IVIG) (% of no-IVIG control) worked out at 194; the AAV2 luciferase signal, percent of no-IVIG control, at 20:1 molar ratio (75 µg protein M, 12.5 µg IVIG) (% of no-IVIG control) amounted to 256; the AAV2 luciferase signal, percent of no-IVIG control, at protein M:IgG molar ratio 0.5:1 (% of no-IVIG control) was 40; the AAV2 luciferase signal, percent of no-IVIG control, at protein M:IgG molar ratio 1:1 (% of no-IVIG control) came out at 52. Further, in assay [4], the AAV2 luciferase signal, percent of no-IVIG control, at protein M:IgG molar ratios greater than 2:1 (% of no-IVIG control) was in the range of 108 to 193 and the molar ratio of protein M to IgG sufficient to prevent AAV2 neutralization (protein M molecules per IgG molecule) was 2.

B2: Modified M. genitalium protein M MG29 (protein, not shown: small tags and cut ends)
chain: SLSLNDGSYQSEIDLSGGANFREKFRNFANELSEAITNSPKGLDRPVPKTEISGLIKTGDNFITPSFKAGYYDHVAEDGSLLSYYQSTEYFNNRVLMPILQTTNGTLMANNRGYDDVFRQVPRFPGWSNTKATTVSTSNNLTYDKWTYFAAKGSPLYDQYPNHTFEDVKTLAIDAKDISALKTTIDSEKPTYLIIRGLSGNGSQLNELQLPESVKKVSLYGDYTGVNVAKQIFANVVELEFYSTSKANSFGFNPLVLGSKTNVINDLFVSKPFTHIDLTQVTLQNSDNSAIDANKLKQAVGDIYNYRRFERQFQGYFAGGYIDKYLVKNVNTNKDSDDDLVYRSLKELNLHLEEAYREGDNTYYRVNENYYPGASIYENERASRDSEFQNEILKRAEQNGVTFDEN
With B2, the luciferase signal of the saline leg against the protein M formulated leg, AAV8-Luciferase re-dosing in immunized mice in assay [5] was more than 98 % less.
